The DeepSol protein solubility set

Experiment: soluble on expression in E. coli; label from the status in PepcDB or PDB records

Sequence	soluble on expression in E. coli
EQALSDQLRFVEALTDCMPPPLYVRDVNGRMLSCNRSYLQSVGLSSEEVMNRTVLELPMENFETAPEFHRSYLMAMREGRTIEAVYPVALGGRERWIDHWIQPFRDSSGTIRGVICGWLDITEHRQLIDELEEAKNLADEASRAKTTFLATMSHEIRTPMNAVIGILELALKRAETGRVDRSSIEIAYASAKSLLELIGDILDIARIESGRLSLSPKRANLRELVESVARVFEGLARQKRLSLVLEIDSSINGDVLLDAMRFKQILSNLVSNAIKFTDEGSIRIRIDGRQVEPSLLQVNLCVEDTGIGISLGDQQQLFRPFAQVNRNLQNTEGTGLGLVISRSLCEMMGGRLVMSSELGQGTRIDVELRLQVLEPIVENVRAIPLGSRQARRLQVLVVDDHAVNRQILHQQLSFLGHDVEEAENGLSALNLWHGQPFDMVITDCHMPLMSGSDLARSIRQEERENGEEPVVIIGLTADAQPEEIERCIQAGMNECLIKPIGLDVLEERLLALGFAADELPVTIDAEPVAIPTAPRLYDLDSLHALTGGEPTMLRRLLDELLTSNRKDLETLEGLVQRQETGELAELAHRIKGAARVVRGEQLVESCRRLEDACLSPNASFAWVEECAVGVKLAILALDESLVEEC	not soluble
EQVVARKKLEESESRFRALVNASSDVVYRMNADWTVMRELEGRDFLTPAGTAMADWVETYTYREDRALVKATAAAAIEGKRIFELEHRVLKADGTIGWTFSRAIPILDEQGNIIEWFGSAADIT	not soluble
EREEEPAVQGNPDESLTVEGALEYVELAPQLNLPQQEEDADFHTVAGLIMEELQTIPDVGDFADFHGWRFEVVEKEGQRIERVKITKLP	soluble
ERIQQFYFEVKNKDKFEALCRIIDVEEPETTIIFCRTKRGVDELVESMQFRGYNVEGMHGDMSQNQRINTLKKFKENNIDFLVATDVAARGIDVHNVSHVINYDIPQDMESYVHRIGRTGRANAEGIAYSLVTPREYVMIKQIEKFTKSKIRRKEIPTIDDIFETKYNTLTDKITKNIEKDDFKKYIPFVQKLDDEFNLVDVSAALVKMIFDKEMGFDYSDDDKLKSDESVR	not soluble
ESVKGAQTDLTSLTDESQEKTLENGSPSSKIAVLEVSGTIQDNGDSSSLLGADGYNHRTFLKNLERAKDDKTVKGIVLKVNSPGGGVYESAEIHKKLEEIKKETKKPIYVSMGSMAASGGYYISTAADKIFATPETLTGSLGVIMESVNYSKLADKLGISFETIKSGAHKDIMSPSREMTKEEKNIMQSMVDNSYEGFVDVISKGRGMPKAEVKKIADGRVYDGRQAKKLNLVDELGFYDDTITAMKKDHKDLKNASVISYEESFGLGSLFSMGANKMFKSEIDFLNMREILSQSGS	not soluble
ETGDIVETATGAGSFTTLLTAAEAAGLVDTLKGDGPFTVFAPTDAAFAALPEGTVEDLLKPENKEKLTEILTYHVVPGEVMSSDLTEGMTAETVEGGALTVTLEGGPKVNGVSISQPDVDASNGVIHVIDGVLMPGA	soluble
ETMVGSFRDTTDKWLSQRLAADIYIYPTNNSAGRMSAWLQDQPEVESVWWRWEKDVPTEHGALQVVSTGPSEGELDSLTVKLGVPNYWYQLHQTKSLMVSESMALKLDIRPGDYIDLQAPLGEGWQVVGVYYDYGNPYNQVMMSHRN	not soluble
EVKLQESGAGLVQPSQSLSLTCSVTGYSITSGYYWNWIRLFPGNKLEWVGYISNVGDNNYNPSLKDRLSITRDTSKNQFFLKLNSVTTEDTATYYCARSEYYSVTGYAMDYWGQGTTVTVSSAWRHP	soluble
FEPMMQRDKIMQNLSYISDVNVLPDWMTVSQLLSYTEGVHPGFNRSKADALLRQTDIKPRAKIRALSKGMKVQLHLAIVIATNTQILILDEPTLGLDLVYRDTFYRHLLEWFHDGERVLIITSHEVSEIEHLLTDVLILKHGRPVLQTSMESISEDYFILDANDEHRAQIEAMHPLSSQKGLGTTKWLLSSQYADQAAGLGDVHGVKLADLFLALQKEAA	not soluble
FGKVGYATNLTYTANRNKIMKMVHDYKNPSDGSLFSITELTLQDKGGVYLREKDAIGDVYVKGILARGKDGKLIEEEGGYKVDRSQRIKIGSVNPDFSIGWRHNVTWNNITLDLLFNGRFGGIVTSSTQAFLDDYGVSKDTYKARQNGGVWVNGTQYDAEKYYTTIGGEQLMAYYAYKATNIRLQEASLSYTLPGKWFGNVINRLTVSAIGRNLWMIYNKAPFDPEMTSSTGTYNRGDVFMPPSLRSVGFSVKIEL	not soluble
FLILGTLFSSSLYADIDNAPLHALAKHQGFFFFFSSSCPHCQRFAPTLKRLSQHYGFSVVAISVDGGFLPSFPDAVMNEGQTKVFQVSVYPSLFLINPKSQVASLVTEGTIDEGELTNRLLKI	not soluble
FLKGGFDPKMNSKEALQILNLTENTLTKKKLKEVHRKIMLANHPDKGGSPFLATKINEAKDFLEKRGISK	not soluble
FMQEPEAIETALHRLSDHDLIVIQVLDPTEKVLPLQGNSKLVDLETGEEIRTYISDNFKERYTRKLDDHSARIKKTCMKVGAEFYTFTTDTPVFNAFYNTIRRRRR	not soluble
FNRRFILPELREAVRSVSADIVFLQEVHGEHHSHARRVKDWPTISQYEFLADSMWSDFAYGRNAVYPDGDHGNALLSKYPIIQHENLDVSIDGTEQRGLLHCILQVPDHGQVHAVCVHLGLFESHRRQQLKLLAQLMDRLPEGAPVIVAGDFNDWRQRADALLQGTGLHEVFVQRFGAPAKSFPARWPLLRLDRIYVRNATSHRPKVLSSRPWSHLSDHAPLAVEVTL	not soluble
FPRVSQELKTALSTLQQTFVVSDATQPHCPIVYASSGFFTMTGYSSKEIVGRNCRFLQGPDTDKNEVAKIRDCVKNGKSYCGRLLNYKKDGTPFWNLLTVTPIKDDQGNTIKFIGMQVEVSKYTEGVNDK	soluble
FSNNNFVYTDGTHFALNGKSLYINGFNAYWLMYIAYDPSTRIKVTNTFQQASKYKMNVARTWAFSHGGSRPLQSAPGVYNEQMFQGLDFVISEAKKYGIHLIMSLVNNWDAFGGKKQYVEWAVQRGQKLTSDDDFFTNPMVKGFYKNNVKVVLTRVNTITKVAYKDDPTILSWELINEPRCPSDLSGKTFQNWVLEMAGYLKSIDSNHLLEIGLEGFYGNDMRQYNPNSYIFGTNFISNNQVQGIDFTTIHMYPNQWLPGLTQEAQDKWASQWIQVHIDDSKMLKKPLLIAEFGKSTKTPGYTVAKRDNYFEKIYGTIFNCAKSGGPCGGGLFWQVLGQGMSSFDDGYQVVLQESPSTSRVILLQSLRLSKLS	soluble
FTLVCITAASRHHWGTEVDIFDPDLLPRGQSLQLEPWEYEKGGYFFELSEFLAENLPHFDFALPFMNMQSNKKVGREPWHISYLPL	not soluble
GAMDPEFMSTPLPAIVPAARKATAAVIFLHGLGDTGHGWAEAFAGIRSSHIKYICPHAPVRPVTLNMNVAMPSWFDIIGLSPDSQEDESGIKQAAENIKALIDQEVKNGIPSNRIILGGFSQGGALSLYTALTTQQKLAGVTALSCWLPLRASFPQGPIGGANRDISILQCHGDCDPLVPLMFGSLTVEKLKTLVNPANVTFKTYEGMMHSSCQQEMMDVKQFIDKLLPPID	soluble
GDAFVGTWKLVSSENFDDYMKEVGVGFATRKDAGMAKPNMIISVNGDLVTIRSESTHKNTEISFKLGVEFDEITADDRKVKSIITLDGGALVQVQKWDGKSTTIKRKRDGDKLVVECVMKGVTSTRVYERA	soluble
GDNDAIYYPVGDVDIERGGPALEVGEEDVLVARSFNEEDYVLDTIAQYPNDPTLGKLTFMIDLKNQQKDQNVADFNGVGKSKLTMSLGYKDGNYPSESQVPIYTSQDVTAKYAVKLRLKGELLVSGDEWMIDYVYAQLASLFQPYPPANFPEVFMCKGGMKLGTFDSFRRTCTFDITYDRSDLSFSQLYFNLFINLAGQKRENRVRLRIDKESYFELYEQSEEM	soluble
GEADSGDGDSSEYQDGKEFGIGDLVWGKIKGFSWWPAMVVSWKATSKRQAMSGMRWVQWFGDGKFSEVSADKLVALGLFSQHFNLATFNKLVSYRKAMYHALEKARVRAGKTFPSSPGDSLEDQLKPMLEWAHGGFKPTGIEGLKPNNTQP	soluble
GEFLISILEAIEPEVVYAGYDNSQPDTTNYLLSSLNRLAGKQMVSVVKWAKALPGFRNLHLDDQMTLIQYSWMSLMAFSLGWRSYKHTNGQMLYFAPDLIFNEERMQQSAMYDLCQGMRQISQEFVRLQVTYEEFLCMKVLLLLSTVPKDGLKSQASFDEMRMNYIKELRRAIAKKENNSSQNWQRFYQLTKLLDSMHDLVGGLLQFCFYTFVQSQALSVEFPEMLVEIISDQLPKVMAGMAKPLLFHKK	soluble
GEMDERLLQKYRAQVFEWGGCFDKMFEALKSLIYLSEFENSEFDDEERHLLTLCIKHKISDYRTMTSQVLQEQTKQLNNDELVKICSEYVFSLRKDIKAFLQSFEDCVDRLVEKSFFSKFFKLKVKSDISRYKLEFGLCSLEDSKKIHQDAFTLLCEHPDKIEQLPLGFIQNLAYILSEKYGEKKQVFNMLNSLGKILELQIKEQENMDRKAQITVYLQGIKDYIEK	soluble
GFGCPGNQLKCNNHCKSISCRAGYCDAATLWLRCTCTDCNGKK	soluble
GFIDTHVHSGHRALHKLLADGGRPDLFGQPYMDVTIARDGTRIKGYPNYLSREEAAVDPGIALHAAFTVAELLRNGVTTFVELGGHVMVQEALWRECERLGVRGYLGAGYDSGRWAADDQGRLRRVPYPDGGDHLFEEAVAFIKRVQAAGNDLVNGILVPREVENCSVDILRRTVQAAQELGVPMATHAGYNVIEFYETVREHRMTPIELLHSVGMLGPRLNIGHANLISDSPRLNYSGGRDLALMGEHRVSISHCPINIVRRARVLDSWKKYREAGVNLTIGSDTYPRDMVMNMRTASYHGKVMSHDLTAASAAEVFEAATLGGARSLGRTDI	not soluble
GFLSHLDIVSTFNDHLAQRHDLDPYTVTLTVREGGEVVYIGCRNSAQPLGHTFRIGMRLPAPFTATGKILLSDLGPGELRMLFSQFPQPLTSRSVAGLSQLEEELALTRARGYSIDDGQIREGMLCIGAAIRDYSGAASAGIAISLIRSEASDEKIASLGEELRTTANALSEKLGYRSQKD	soluble
GFPSPAADYVEQRIDLNQLLIQHPSATYFVKASGDSMIDGGISDGDLLIVDSAITASHGDIVIAAVDGEFTVKKLQLRPTVQLIPMNSAYSPITISSEDTLDVFGVVIHVVKAATR	soluble
GGVDRWPEYYPETGRDIWIDSVMRQEYLWYRDMPSPAAPDYFQKPEAFLKKAVASMDNGFSKIDSLLDEPIPSYGFDYTLYKVLDNDTAYNALISYVVPGSPAEEAGLQRGHWIMMMNGDYITKKVESELLQGSTRQLQIGVYKEVVGEDGEVTGGVVPIGETTMPASRSLVDKPVHRFEIIPWNGKKVGYLMYNEFKAGPTTDSQAYNDDLRRAFRDFQTGGVNEFVLDLRYNTGGSLDCAQLLCTMLAPADKMNQLLALLRYSDKRVEANQDLTFNPELIQSGANLNLSTVYVLTTNATRGAAEMVINCLNPYMKVVLIGTKTAGEYVATKPFVHPTDRFILNLVVCNVYNAEEKSDYATGFKPTYEYNEDSYLSTYLPFGNTNETLLNAALKIMSGITDK	soluble
GHMASGLTIYFKKPDSWGTPHLYYYDTNPKVDEPTWSEAPEMEHYEGDWYTHTIEGVESVRLLFKDRGTNQWPGPGEPGFFRDQDGWFDGEWHVDRPG	soluble
GHMEDFWVQYGDEMLPVIGDFPRKGDYLPSFMLVDDQKHDAALESFSHTPKLIVTLLSVDEDEHAGLLLLRETRRFLDSWPHLKLIVITVDSPSSLARARHEHGLPNIALLSTLRGRDFHKRYGVLITEYPLSGYTSPAIILADAANVVHYSERLANTRDFFDFDAIEKLLQEGEQQAMAAEREAAEARQEQDAEREKGTERLLEKAKLIQDQLNRNGDPGRGS	soluble
